What is called Kd is the concentration at which binding is half-saturated. Low readings indicate higher affinity, high ones lower affinity. In general, IC50 refers to the point on the concentration scale where inhibition reaches its midpoint. Low readings indicate higher potency, high ones lower potency.

The labels stand for the following.
B1: GSK3772847-IgG4 (antibody, V domains shown)
VH: EVQLLESGGGLVQPGGSLRLSCAASGFTFSIYDMIWVRQAPGKGLEWVSSIRGEGGGTYYADSVKGRFTISRDNSKNTLYLQMNSLRAEDTAVYYCARDPWSTEGSFFVLDYWGQGTLVTVSS
VL: EIVLTQSPATLSLSPGERATLSCRASQSVDDDLAWYQQKPGQAPRLLIYDASNRATGIPARFSGSGSGTDFTLTISSLEPEDFAVYYCQQYITAPLTFGQGTKVEIK
notes: Positive control antibody made after US9382318B2/US9090694B2; also called 抗人ST2对照抗体GSK3772847
B2: MSTT1041A-IgG4 (antibody, V domains shown)
VH: EVQLVQSGAEVKKPGESLKISCKGSGYSFTNYWIGWVRQMPGKGLEWMGIIYPGNSDTRFSPSFQGQVTISADKSITTAYLQWSSLKASDTAMYYCARHGTSSDYYGLDVWGQGTTVTVSS
VL: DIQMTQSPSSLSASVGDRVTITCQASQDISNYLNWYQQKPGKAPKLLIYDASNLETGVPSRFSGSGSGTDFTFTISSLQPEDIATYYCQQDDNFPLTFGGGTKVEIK
notes: Positive control antibody made after US9382318B2/US9090694B2; also called 抗人ST2对照抗体MSTT1041A
B3: H5G10+L2G2 (antibody, IgG4, V domains shown)
VH: EVQLVQSGAEVKKPGASVKVSCKVSGYTLTELSIHWVRQAPGKGLEWMGGFGPEDGEAIYAQKVQGRVILSEDTATDTAYMELSSLRSEDTAVYYCTNEDSGGLFDYWGQGTLVTVSS
VL: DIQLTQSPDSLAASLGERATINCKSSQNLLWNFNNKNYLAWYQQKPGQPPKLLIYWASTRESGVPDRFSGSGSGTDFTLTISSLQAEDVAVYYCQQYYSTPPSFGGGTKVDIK
notes: Full antibody, IgG4 heavy constant region
B4: H5G3+L1D1 (antibody, IgG4, V domains shown)
VH: QVQLVQSGAEVKKPGASVKVSCKVFGYTLTELSMHWVRQAPGKGLEWMGSFDRGDGKTIYAQKFLGRVTMTEDTSTDTAYMELSSLRSEDTAVYYCTNEDSSGLFDFWGQGTLVTVSS
VL: DIQLTQSPDSLAVSLGERATINCKSSQSLLYSFNNKNYLAWYQQKPGQPPNLLIYWASTRESGVPDRFSASGSGTDFTLTISSLQAEDVAVYYCQQYYGVPQTFGQGTKVEIK
notes: IgG4 heavy constant region
B5: H6D6+L2G2 (antibody, IgG4, V domains shown)
VH: QMQLVQSGAEVKKPGSSVKVSCKASGGTFSSYAISWVRQAPGKGLEWMGGFDPEDGETIYAQKFQGRVTMTEDTSTDTAYMELSSLRSEDTAVYYCTTEDSSGLLDFWGQGTLVTVSS
VL: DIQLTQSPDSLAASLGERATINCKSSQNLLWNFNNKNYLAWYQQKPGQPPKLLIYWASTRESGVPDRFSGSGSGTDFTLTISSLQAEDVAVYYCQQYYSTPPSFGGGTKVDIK
notes: as for B3
B6: S1A4-IgG4 (antibody, V domains shown)
VH: B3 VH with E1Q, A58T, V64F, I69T, L70M, S71T, A75S, T97I, Y107F, L113T
VL: not shown
notes: Full antibody; also called 抗人ST2单克隆抗体S1A4
B7: H5G3+L2G2 (antibody, IgG4, V domains shown)
VH: B4 VH
VL: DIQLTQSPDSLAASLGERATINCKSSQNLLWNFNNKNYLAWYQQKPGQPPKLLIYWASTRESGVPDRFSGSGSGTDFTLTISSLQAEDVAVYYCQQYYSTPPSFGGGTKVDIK
notes: as for B3
B8: H5E10+L2G2 (antibody, IgG4, V domains shown)
VH: B3 VH with G52D, A58T, V64F, V68I, I69T, S71T, A75S, G102S
VL: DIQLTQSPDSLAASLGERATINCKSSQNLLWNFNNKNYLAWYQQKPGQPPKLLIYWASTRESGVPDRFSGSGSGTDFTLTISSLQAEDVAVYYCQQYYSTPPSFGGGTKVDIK
notes: as for B3
B9: H6D3+L2G2 (antibody, IgG4, V domains shown)
VH: QVQLVQSGAEVKKPGASVKVSCKVSGHTLTELSIHWVRQTPGKGLVWLGGFESEDGEAIYAQNFQGRVIMTEDTFTDTAYMELSSLRSEDTAVYYCTTEDSSGLIDYWGQGTLVTVSS
VL: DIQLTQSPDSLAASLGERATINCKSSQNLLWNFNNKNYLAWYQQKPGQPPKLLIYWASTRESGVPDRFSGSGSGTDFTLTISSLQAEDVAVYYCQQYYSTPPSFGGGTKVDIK
notes: as for B3
B10: 全人源单链抗体S1A4 (scFv)
scFv: QVQLVQSGAEVKKPGASVKVSCKVSGYTLTELSIHWVRQAPGKGLEWMGGFGPEDGETIYAQKFQGRVTMTEDTSTDTAYMELSSLRSEDTAVYYCINEDSGGLFDFWGQGTTVTVSSGGGGSGGGGSGGGGSDIQLTQSPDSLAVSLGERATINCKSSQSVLYSSNNKNYLAWYQQKPGQPPKLLIYWASTRESGVPDRFSGSGSGTDFTLTISSLQAEDVAVYYCQQYYSTPWTFGQGTKLEIK
notes: also called S1A4 scFv
B11: S1A4VH+L2G2 (antibody, V domains shown)
VH: B3 VH with E1Q, A58T, V64F, I69T, L70M, S71T, A75S, T97I, Y107F, L113T
VL: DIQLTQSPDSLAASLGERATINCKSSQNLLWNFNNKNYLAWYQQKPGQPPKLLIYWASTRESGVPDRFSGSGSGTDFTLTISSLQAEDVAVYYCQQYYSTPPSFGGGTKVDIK
notes: Full antibody, heavy chain constant region IgG4 subtype
B12: S1A4VH+L1D1 (antibody, V domains shown)
VH: B3 VH with E1Q, A58T, V64F, I69T, L70M, S71T, A75S, T97I, Y107F, L113T
VL: B4 VL
notes: as for B11

Where a chain is given by its changes, count along the chain named.

For one test, the target named is T1, ST2L (IL1RL1) on cells (human, UniProt Q01638 19-556).
T1 sequence (looked up): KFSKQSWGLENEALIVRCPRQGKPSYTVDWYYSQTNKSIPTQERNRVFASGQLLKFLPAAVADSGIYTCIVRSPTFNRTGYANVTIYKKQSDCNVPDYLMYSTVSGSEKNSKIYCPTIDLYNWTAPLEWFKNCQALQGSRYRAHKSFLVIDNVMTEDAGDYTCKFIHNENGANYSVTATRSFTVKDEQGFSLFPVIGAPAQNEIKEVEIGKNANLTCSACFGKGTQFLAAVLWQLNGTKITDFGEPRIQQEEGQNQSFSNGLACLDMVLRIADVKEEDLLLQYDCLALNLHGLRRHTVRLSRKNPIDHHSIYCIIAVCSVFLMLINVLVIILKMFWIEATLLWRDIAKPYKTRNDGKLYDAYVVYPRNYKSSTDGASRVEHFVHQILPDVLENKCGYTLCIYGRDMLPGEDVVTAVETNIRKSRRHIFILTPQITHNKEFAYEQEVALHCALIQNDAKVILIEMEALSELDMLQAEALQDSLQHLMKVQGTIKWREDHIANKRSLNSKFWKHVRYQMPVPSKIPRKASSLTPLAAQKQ
The test is described as follows: cell-based or functional assay.
B1: the “IC50 of inhibition of IFNγ secretion by PBMC co-stimulated with IL-33 and IL-12” value (shortened to “IC50 of inhibition of IFNγ secretion”) was 0.0157 nM.

Take B2: the “IC50 of inhibition of IFNγ secretion” value was 0.037 nM.

With B3, the “IC50 of inhibition of IFNγ secretion” value is 0.0175 nM.

For B4, the “IC50 of inhibition of IFNγ secretion” value was found to be 0.038 nM.

For another test, the target named is T2, 小鼠ST2 (mST2-his) (mouse (mus musculus), UniProt P14719 27-332).
T2 construct: not shown: His tag at C-terminus
T2 sequence: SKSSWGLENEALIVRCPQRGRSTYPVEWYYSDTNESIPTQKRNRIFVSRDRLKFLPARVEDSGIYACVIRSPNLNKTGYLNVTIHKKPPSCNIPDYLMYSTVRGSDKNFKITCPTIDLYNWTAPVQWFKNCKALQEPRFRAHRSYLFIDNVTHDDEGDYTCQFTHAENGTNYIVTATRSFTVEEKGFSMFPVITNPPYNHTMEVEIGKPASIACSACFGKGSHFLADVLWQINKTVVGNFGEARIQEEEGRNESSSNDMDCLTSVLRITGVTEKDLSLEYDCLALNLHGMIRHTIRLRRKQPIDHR
The test is described as follows: ELISA, mST2-his coated 1 µg/mL, HRP anti-human IgG.
Take B5: the binding result was “binds”.

Regarding B6, the binding result is reported as “binds”.

As for B7, the binding result is on record as “binds”.

As to B4, the binding result is listed as “binds”.

B8: the binding result was “binds”.

As to B9, the binding result is “binds”.

A further test concerns the target T3, 猕猴ST2 (mmST2-his) (rhesus macaque (Macaca mulatta), UniProt Q01638 19-328 (human entry)).
T3 construct: not shown: His tag at C-terminus
T3 chain: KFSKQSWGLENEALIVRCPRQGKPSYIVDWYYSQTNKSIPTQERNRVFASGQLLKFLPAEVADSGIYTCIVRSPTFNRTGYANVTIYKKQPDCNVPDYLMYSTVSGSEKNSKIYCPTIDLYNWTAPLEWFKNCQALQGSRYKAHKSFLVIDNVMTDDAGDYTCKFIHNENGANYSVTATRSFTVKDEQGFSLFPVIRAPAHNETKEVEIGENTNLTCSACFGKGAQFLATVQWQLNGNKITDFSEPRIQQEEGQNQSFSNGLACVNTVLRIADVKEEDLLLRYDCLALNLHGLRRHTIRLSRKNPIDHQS
The test is described as follows: ELISA, mmST2-his coated 1 µg/mL, HRP anti-human IgG. A general note: ELISA stands for enzyme-linked immunosorbent assay.
As for B5, the binding result was “binds”.

With B6, the binding result is reported as “binds”.

B7: the binding result is “binds”.

Turning to B4, the binding result is on record as “binds”.

As to B8, the binding result is on record as “binds”.

With B9, the binding result was “binds”.

Another test has as its target T4, 重组人ST2-his (人ST2胞外区, C端His标签) (human (homo sapiens), UniProt Q01638 19-328).
T4 construct: Expressed in HEK293 cells; also called hST2-his; hST2-His; not shown: His tag at C-terminus
T4 sequence: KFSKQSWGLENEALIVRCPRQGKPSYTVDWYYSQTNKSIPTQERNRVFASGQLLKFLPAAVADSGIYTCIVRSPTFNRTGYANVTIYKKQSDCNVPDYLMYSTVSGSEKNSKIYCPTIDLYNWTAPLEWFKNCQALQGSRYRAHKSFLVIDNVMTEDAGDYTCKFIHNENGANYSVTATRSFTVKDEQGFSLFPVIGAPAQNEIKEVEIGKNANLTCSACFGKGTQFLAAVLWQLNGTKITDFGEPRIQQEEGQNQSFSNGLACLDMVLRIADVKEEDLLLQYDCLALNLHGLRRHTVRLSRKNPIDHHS
The test is described as follows: phage display solid-phase panning on recombinant human ST2-his.
B10: the binding result is “binds”.

Another test deals with T2, 小鼠ST2 (mST2-his). The test is described as follows: ELISA, mST2-his coated at 1 µg/mL, HRP anti-human IgG detection.
Turning to B3, the binding result is listed as “no binding”.

A further test addresses T4, 重组人ST2-his (人ST2胞外区, C端His标签). The test is described as follows: SPR Biacore X100 as in Example 3.4, antibody captured, hST2-his analyte. In general terms: In SPR one partner is held on a chip, and binding of the other changes the refractive index at the surface.
In turn, B11 came in with a Kd of 0.0794 nM.

In turn, B6 showed a Kd of 0.111 nM. The Kd values of the last two molecules are within 1.5-fold of each other.

B12: the Kd was 0.152 nM.

A further test shares this target. Described as above. This is another data set of the same source.
In the case of B5, the Kd worked out at 0.695 nM.

B6: binding was characterised by a dissociation constant (Kd) of 0.139 nM.

Molecule B3 showed a Kd of 0.0852 nM.

On to B7, for which binding was characterised by a dissociation constant (Kd) of 0.115 nM.

B8 yielded a Kd of 0.709 nM.

For the molecule B9, the Kd was 0.0373 nM. Compared with the last molecule, the Kd is about 19-fold lower.

The next test shares this target. The test is described as follows: competition ELISA, hST2-his coated, competitor hIL33-mFc 0.5 µg/mL, antibody titrated.
Consider B1, for which the 50% inhibitory concentration (IC50) worked out at 5.52 nM. In other words, the single-digit nanomolar range.

Molecule B2 had an IC50 of 3.79 nM. This IC50 and that of the molecule before are within 1.5-fold of each other.

In turn, B6 returned an IC50 of 4.15 nM. This IC50 and that of the molecule before are within 1.5-fold of each other.

Another test has the same target. The test is described as follows: SPR Biacore X100, antibody captured by anti-human Fc, hST2-his analyte, 25 °C, 1:1 model.
Molecule B1 registered a Kd of 0.109 nM.

For B2, the Kd was determined as 0.24 nM.

Turning to B6, the Kd is 0.135 nM.

These data come from patent CN110357963A (BEIJING ZHIREN MEIBO BIOTECHNOLOGY CO LTD, dated 2019).
